Experimental data published in patent US20250163162A1 (SYNTHEKINE, published 2025).

T1: IL10Rα/IL2Rγ receptor (human, UniProt Q13651 22-578; P31785 23-369)
T1 sequence (looked up) 1: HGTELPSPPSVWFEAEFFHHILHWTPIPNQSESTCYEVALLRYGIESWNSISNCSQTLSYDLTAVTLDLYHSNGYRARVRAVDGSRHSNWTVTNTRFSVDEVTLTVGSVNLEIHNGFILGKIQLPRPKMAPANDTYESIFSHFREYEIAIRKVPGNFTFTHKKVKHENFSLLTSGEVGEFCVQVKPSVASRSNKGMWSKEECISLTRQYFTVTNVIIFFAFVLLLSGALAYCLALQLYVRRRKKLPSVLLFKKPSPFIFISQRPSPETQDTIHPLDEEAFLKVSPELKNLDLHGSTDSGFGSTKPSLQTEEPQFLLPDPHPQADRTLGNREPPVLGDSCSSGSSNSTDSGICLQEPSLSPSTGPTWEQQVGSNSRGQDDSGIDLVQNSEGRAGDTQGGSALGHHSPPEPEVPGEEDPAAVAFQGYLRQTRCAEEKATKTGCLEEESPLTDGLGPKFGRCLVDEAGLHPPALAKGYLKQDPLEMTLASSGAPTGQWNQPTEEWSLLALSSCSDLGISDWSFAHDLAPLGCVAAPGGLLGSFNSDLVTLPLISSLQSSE
T1 sequence (looked up) 2: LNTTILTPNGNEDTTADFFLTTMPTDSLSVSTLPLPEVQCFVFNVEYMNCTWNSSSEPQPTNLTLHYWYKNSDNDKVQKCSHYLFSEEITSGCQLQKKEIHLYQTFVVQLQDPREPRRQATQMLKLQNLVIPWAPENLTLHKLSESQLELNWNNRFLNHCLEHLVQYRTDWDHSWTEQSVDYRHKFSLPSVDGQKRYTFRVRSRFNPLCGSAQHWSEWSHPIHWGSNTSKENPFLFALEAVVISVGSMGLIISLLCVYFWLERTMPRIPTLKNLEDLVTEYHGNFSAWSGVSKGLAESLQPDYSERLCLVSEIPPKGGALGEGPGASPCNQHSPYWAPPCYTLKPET


Target: T1, IL10Rα/IL2Rγ receptor
Experiment: cell-based or functional assay

| pSTAT3 MFI, B cells, 100 nM (unstimulated 1045) [MFI] | pSTAT3 MFI, CD4+ T cells, 100 nM (unstimulated 1778) [MFI] | pSTAT3 MFI, CD8+ T cells, 100 nM (unstimulated 1288) [MFI] | pSTAT3 MFI, Monocytes, 100 nM (unstimulated 1787) [MFI] | pSTAT3 MFI, NK cells, 100 nM (unstimulated 1149) [MFI] | Binder |
| --- | --- | --- | --- | --- | --- |
| 1080 | 3520 | 2260 | 1860 | 1290 | DR468(DR240-DR234) (bispecific antibody) QVQLQESGGGSVQAGGSLRLSCGASGYTYSSYCMGWFRQVPGKEREGVAVIDSDGSTSYADSVKGRFTISKDNGKNTLYLQMNSLKPEDTAMYYCAADLGHYRPPCGVLYLGMDYWGKGTQVTVSSGGGSQVQLQESGGGSVQAGGSLRLSCVASGYTFSSYCMGWFRQAPGKEREGVAALGGGSTYYADSVKGRFTISQDNAKNTLYLQMNSLKPEDTAMYYCAAAWVACLEFGGSWYDLARYKHWGQGTQVTVSSASHHHHHH |
| 1060 | 3340 | 2390 | 1890 | 1280 | DR392(DR229-DR236) (bispecific antibody) QVQLQESGGGLVQPGGSLRLSCTASGFSFSSYPMTWARQAPGKGLEWVSTIASDGGSTAYAASVEGRFTISRDNAKSTLYLQLNSLKTEDTAMYYCTKGYGDGTPAPGQGTQVTVSSGGGSQVQLQESGGGSVQAGGSLRLSCAASRFTYSSYCMGWFRQAPGKEREGVASIDSDGSTSYTDSVKGRFTISKDNAKNTLYLQMNSLKPEDTAMYYCALDLMSTVVPGFCGFLLSAGMDYWGKGTQVTVSSASHHHHHH |
| 1100 | 3170 | 2310 | 1870 | 1280 | DR466(DR240-DR232) (bispecific antibody) QVQLQESGGGSVQAGGSLRLSCGASGYTYSSYCMGWFRQVPGKEREGVAVIDSDGSTSYADSVKGRFTISKDNGKNTLYLQMNSLKPEDTAMYYCAADLGHYRPPCGVLYLGMDYWGKGTQVTVSSGGGSQVQLQESGGGSVQAGGSLRLSCVASGYTSCMGWFRQAPGKEREAVATIYTRGRSIYYADSVKGRFTISQDNAKNTLYLQMNSLKPEDIAMYSCAAGGYSWSAGCEFNYWGQGTQVTVSSASHHHHHH |
| 1050 | 3110 | 2100 | 1790 | 1220 | DR442(DR236-DR232) (bispecific antibody) QVQLQESGGGSVQAGGSLRLSCAASRFTYSSYCMGWFRQAPGKEREGVASIDSDGSTSYTDSVKGRFTISKDNAKNTLYLQMNSLKPEDTAMYYCALDLMSTVVPGFCGFLLSAGMDYWGKGTQVTVSSGGGSQVQLQESGGGSVQAGGSLRLSCVASGYTSCMGWFRQAPGKEREAVATIYTRGRSIYYADSVKGRFTISQDNAKNTLYLQMNSLKPEDIAMYSCAAGGYSWSAGCEFNYWGQGTQVTVSSASHHHHHH |
